Paper PMC8852293 (Nature microbiology, 2020)

Molecular target: the molecule itself
Assay: ITC

B1: HDP1 DNA-binding domain (HDP1 aa2991-3078) (domain or fragment, P. falciparum, UniProt A0A2I0C2C6 2991-3078, looked up)
chain: SEVQVSNINTPSSYNISARRRRRIGNNGPPSAEELNRLLNIQHLTIPEIATIYGVHRTTIARWCNIRNITSNSMNNSPGKRRKNEDNK
binding result: binds
